Experimental findings from PMC2770544, “Conformational changes and loose packing promote E. coli Tryptophanase cold lability” (BMC Structural Biology, 2009) are described below.

For orientation: stoichiometry N means the number of molecules, sites or subunits per partner or assembly.

To fix the notation:
B1: wild-type E. coli tryptophanase, holo form (enzyme)
chain: not shown
modifications: pyridoxal 5'-phosphate (PLP) covalently bound to Lys270
notes: tryptophanase (Trpase, EC 4.1.99.1), E. coli, wild type, ~52 kD per monomer; also called wt holo; wt Trpase; source: E. coli SVS 370 cells containing the tnaA gene on plasmids, purified (DEAE anion exchange, Sephacryl S-300-HR)
B2: E. coli tryptophanase C298S mutant, holo form (enzyme)
chain: MENFKHLPEPFRIRVIEPVKRTTRAYREEAIIKSGMNPFLLDSEDVFIDLLTDSGTGAVTQSMQAAMMRGDEAYSGSRSYYALAESVKNIFGYQYTIPTHQGRGAEQIYIPVLIKKREQEKGLDRSKMVAFSNYFFDTTQGHSQINGCTVRNVYIKEAFDTGVRYDFKGNFDLEGLERGIEEVGPNNVPYIVATITSNSAGGQPVSLANLKAMYSIAKKYDIPVVMDSARFAENAYFIKQREAEYKDWTIEQITRETYKYADMLAMSAKKDAMVPMGGLLCMKDDSFFDVYTECRTLSVVQEGFPTYGGLEGGAMERLAVGLYDGMNLDWLAYRIAQVQYLVDGLEEIGVVCQQAGGHAAFVDAGKLLPHIPADQFPAQALACELYKVAGIRAVEIGSFLLGRDPKTGKQLPCPAELLRLTIPRATYTQTHMDFIIEAFKHVKENAANIKGLTFTYEPKVLRHFTAKLKEV
modifications: pyridoxal 5'-phosphate (PLP) covalently bound to Lys270
notes: tryptophanase (Trpase), E. coli, C298S mutant; also called C298S holo; source: E. coli SVS 370 cells containing the tnaA gene with the site-directed mutation, purified as the wild type
B3: E. coli tryptophanase W330F mutant, holo form (enzyme)
chain: not shown
modifications: pyridoxal 5'-phosphate (PLP) covalently bound to Lys270
notes: tryptophanase (Trpase), E. coli, W330F mutant; also called W330F holo; source: E. coli SVS 370 cells containing the tnaA gene with the site-directed mutation, purified as the wild type
B4: E. coli tryptophanase W330F mutant, apo form (enzyme)
chain: not shown
notes: tryptophanase (Trpase), E. coli, W330F mutant, without PLP; also called W330F apo; source: E. coli SVS 370 cells containing the tnaA gene with the site-directed mutation, purified; apo enzyme by overnight dialysis of the holo enzyme
B5: wild-type E. coli tryptophanase, apo form (enzyme)
chain: not shown
notes: tryptophanase (Trpase, EC 4.1.99.1), E. coli, wild type, without PLP; also called wt apo; apo wt Trpase; source: E. coli SVS 370 cells containing the tnaA gene on plasmids, purified; apo enzyme by overnight dialysis of the holo enzyme against 0.1 M sodium phosphate-ethylenediamine buffer, pH 8.0, 4°C
B6: E. coli tryptophanase Y74F mutant, apo form (enzyme)
chain: B2 chain with Y74F, S298C
notes: tryptophanase (Trpase), E. coli, Y74F mutant, without PLP; one monomer in the asymmetric unit of the crystal, the tetramer arises by symmetry; also called Y74F apo; apo Y74F; source: E. coli BL21(DE3), pET17b plasmid, purified; apo enzyme by overnight dialysis of the holo enzyme
B7: E. coli tryptophanase C298S mutant, apo form (enzyme)
chain: B2 chain
notes: tryptophanase (Trpase), E. coli, C298S mutant, without PLP; one monomer in the asymmetric unit of the crystal, the tetramer arises by symmetry; also called C298S apo; apo C298S; source: E. coli SVS 370 cells containing the tnaA gene with the site-directed mutation, purified; apo enzyme by overnight dialysis of the holo enzyme
B8: E. coli tryptophanase Y74F mutant, holo form (enzyme)
chain: B2 chain with Y74F, S298C
modifications: pyridoxal 5'-phosphate (PLP) covalently bound to Lys270
notes: tryptophanase (Trpase), E. coli, Y74F mutant; the sample called 'Y74F holo' was run with 0.1 mM PLP; also called Y74F holo; source: E. coli BL21(DE3), pET17b plasmid, purified

Changes are numbered by the printed parent chain. In names and notes the source's numbering stands.

One series concerns the molecule itself. Briefly: SEC; time profile of cold dissociation at 2°C followed by HPLC gel filtration; Tricine-KCl buffer pH 7.5, protein 1.0 mg/ml; tetramer to dimers. (In gel filtration, larger molecules generally elute earlier.)
With B1, the “initial rate constant of cold dissociation (tetramer to dimers)” value (from here on “initial rate constant”) stood at 0.00042 min⁻¹.

On to B2, for which the “initial rate constant” value turned out to be 0.0032 min⁻¹.

In the case of B3, the “initial rate constant” value worked out at 0.00084 min⁻¹.

Another series deals with the molecule itself. In words: SEC; HPLC gel filtration (BIOSEP-SEC S-3000) at 25°C; apo enzymes, same Tricine-KCl buffer without PLP; tetramer to dimers (P. vulgaris: also to monomers).
Consider B4, for which the “degree of dissociation to dimers (%)” value is 69%.

Turning to B5, the “degree of dissociation to dimers (%)” value came to 70%.

With B6, the “degree of dissociation to dimers (%)” value was 80%.

Consider B7, for which the “degree of dissociation to dimers (%)” value was above 80%.

A further series deals with the molecule itself. Briefly: SEC; HPLC gel filtration (BIOSEP-SEC S-3000) at 2°C after cooling (20 h; P. vulgaris 24 h); apo enzymes, same Tricine-KCl buffer without PLP; tetramer to dimers (P. vulgaris: also to monomers).
Consider B4, for which the “degree of dissociation to dimers (%)” value came out at 90%.

For B5, the “degree of dissociation to dimers (%)” value was 87%.

Take B6: the “degree of dissociation to dimers (%)” value is 83%.

As for B7, the “degree of dissociation to dimers (%)” value is 88%.

Another series deals with the molecule itself. Briefly: SEC; HPLC gel filtration (BIOSEP-SEC S-3000) at 25°C; holo enzymes, 1 mg/ml, Tricine-KCl buffer pH 7.5 with PLP (0.1 mM by the table's footnote), 2 mM EDTA, 5 mM 2-mercaptoethanol; tetramer to dimers.
With B1, the “stoichiometry N” value was 4.

For the protein B2, the “stoichiometry N” value came out at 4.

On to B3, for which the “stoichiometry N” value was found to be 4.

Another series deals with the molecule itself. The series is described as above. This is another data set of the same source.
In the case of B1, the “degree of dissociation to dimers (%)” value is below 3%.

For the protein B8, the “degree of dissociation to dimers (%)” value stood at 17%.

With B2, the “degree of dissociation to dimers (%)” value was below 5%.

Turning to B3, the “degree of dissociation to dimers (%)” value was below 5%.

The next series concerns the molecule itself. In words: SEC; HPLC gel filtration (BIOSEP-SEC S-3000) at 2°C after 20 h at 2°C; holo enzymes, 1 mg/ml, Tricine-KCl buffer pH 7.5 with PLP (0.1 mM by the table's footnote), 2 mM EDTA, 5 mM 2-mercaptoethanol; tetramer to dimers.
As for B1, the “degree of dissociation to dimers (%)” value is 20%.

With B8, the “degree of dissociation to dimers (%)” value was found to be 66%.

With B2, the “degree of dissociation to dimers (%)” value came out at 64%.

As for B3, the “degree of dissociation to dimers (%)” value is 61%.
